From patent US20250003940A1, “BIOSENSOR, BIOSENSOR COMPONENTS, AND USE THEREOF” (VICTORIA LINK LIMITED, priority 2021, published 2025) come the findings set out here.

The nature of the data set: Enzyme activity after freeze-drying with stabilisers. Format: physicochemical. The note with it: freeze-dried with different stabilisers, compared with non-freeze-dried standard. As for the experimental part: FIG. 23A: RcArgZ activity levels after freeze-drying with different additives. RcArgZ was purified and exchanged into the freeze-drying buffers. The buffers contained 50 mM Tris-Cl pH 8.0, 1 mM MgCl2, and one of the stabilisers. The stabilisers were the following: 1 mM mannitol, 40 mg/mL mannitol, 1 mM sucrose, 10 mg/mL sucrose, 1 mM trehalose, 20 mg/mL trehalose, or 20 mg/mL sucrose and 40 mg/mL mannitol. The sample was then snap frozen using liquid nitrogen before putting in a benchtop freeze-dryer. The sample was left drying for 18-24 hours. The activity of the freeze-dried enzymes was tested and compared with the non-freeze-dried standard (in their corresponding storage buffer).
FIG. 23B: HpGS activity levels after freeze-drying with different additives. HpGS was purified and buffer exchanged to the freeze-drying buffers. The buffers contained 50 mM Tris-Cl pH 8.0, 1 mM MgCl2, and the stabilisers. The stabilisers were the following: 1 mM mannitol, 40 mg/mL mannitol, 1 mM sucrose, 10 mg/mL sucrose, 1 mM trehalose, 20 mg/mL trehalose, or 20 mg/mL sucrose and 40 mg/mL mannitol. The sample was then snap frozen using liquid nitrogen before putting in a benchtop freeze-dryer. The sample was left drying for 18-24 hours. The activity of the freeze-dried enzymes was tested and compared with the non-freeze-dried standard (in their corresponding storage buffer). […]

B1: BpsA: Streptomyces lavendulae blue pigment synthetase A, converts glutamine to indigoidine, SEQ ID NO: 1 (protein, UniProt Q1MWN4 1-1282, looked up)
Indigoidine synthase: MTLQETSVLEPTLQGTTTLPGLLAQRVAEHPEAIAVAYRDDKLTFRELASRSAALADYLEHLGVSADDCVGLFVEPSIDLMVGAWGILNAGAAYLPLSPEYPEDRLRYMIENSETKIILAQQRLVSRLRELAPKDVTIVTLRESEAFVRPEGTEAPAARSARPDTLAYVIYTSGSTGKPKGVMIEHRSIVNQLGWLRETYAIDRSKVILQKTPMSFDAAQWEILSPANGATVVMGAPGVYADPEGLIETIVKHNVTTLQCVPTLLQGLIDTEKFPECVSLQQIFSGGEALSRLLAIQTTQEMPGRALINVYGPTETTINSSSFPVDPADLDEGPQSISIGSPVHGTTYHILDKETLKPVGVGEIGELYIGGIQLARGYLHRDDLTAERFLEIELEEGAEPVRLYKTGDLGQWNNDGTVQFAGRADNQVKLRGYRVELDEISLAIENHDWVRNAAVIVKNDGRTGFQNLIACIELSEKEAALMDQGNHGSHHASKKSKLQVKAQLSNPGLRDDAELAARPAFDLEGAEPTPEQRARVFARKTYRFYEGGAVTQADLLGLLGATVTAGYSRKAADLAPAELGQILRWFGQYISEERLLPKYGYASPGALYATQMYFELEGVGGLKPGYYYYQPVRHQLVLISEREATGKATAQIHFIGKKSGIEPVYKNNILEVLEIETGHMVGLFEQILPAYGLDIHDRAYEPAVKDLLDVADEDYYLGTFELVPHAGARDDQAEVYVQTHGGKVAGLPEGQYRYENGELTRFSDDIVLKKHVIAINQSVYQAASFGISVYSRAEEEWLKYITLGKKLQHLMMNGLNLGFMSSGYSSKTGNPLPASRRMDAVLGANGVDSAPMYFFVGGRISDEQIGHEGMREDSVHMRGPAELIRDDLVSFLPDYMIPNRVVVFDRLPLSANGKIDVKALAASDQVNAELVERPFVAPRTETEKEIAAVWEKALRRENASVQDDFFESGGNSLIAVGLVRELNARLGVSLPLQSVLESPTIEKLARRLEREVAQESSRFVRLHAETGKARPVICWPGLGGYPMNLRSLAGEIGLGRSFYGVQSYGINEGETPYETITEMAKKDIEALKEIQPAGPYTLWGYSFGARVAFETAYQLEQAGEKVDNLFLIAPGSPKVRAENGKVWGREASFANRGYTTILFSVFTGTISGPDLDRCLETVTDEASFAEFISELKGIDVDLARRIISVVGQTYEFEYSFHELAERTLQAPISIFKAVGDDYSFLENSSGYSAEPPTVIDLDADHYSLLREDIGELVKHIRYLLGE
Turning to B1, the activity when freeze-dried entry is given as “able to retain activity”.
